This assay concerns the target fluorescein-labeled FITC-casein. Nature of the assay: fluorescence polarisation. For orientation: Polarisation of emitted light reports the rotation of a fluorescent probe.

This note sets out measurements from article PMC7984374.

The substance “ClpB_(K-12) (from UniProt P63284 1-857) (enzyme)” showed a Kd of 560 nM.

The Kd is the concentration at which binding is half-saturated. Higher therefore signals a looser complex.
